Test results taken from the supplement of paper PMC9170038.

Test system: MS2 coat protein
Experiment: apparent KD of MS2 coat protein; designed switch direction (-1 OFF switch, 1 ON switch): -1; higher = weaker reporter binding
Summary of the method: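 Transcription of designed RNA switches on Illumina chips was done by stalled E. coli RNA polymerase. SNAP-549-labelled MS2 coat protein was then titrated in doubling steps from 0.7 or 1.5 nM to 3 µM, with steps of 0.8–1.5 h at the lowest and 10–20 min at the highest concentration. The per-design median over clusters of curve-fitted normalised fluorescence is reported as apparent KD.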

[1] = Eterna round: R95, input ligand: microRNA oligo, concentration not stated
[2] = input ligand: microRNA oligo, concentration not stated
[3] = Eterna round: R95, input ligand: FMN 200 uM
[4] = Eterna round: R95, input ligand: none

UUAUUAAGUGUGAGGAUAUGCUGGUCCUUGGAUCAGCAGAAGGCACAUGAGGAUCACCCAUGUACAUUAUUUUA [Mat - Exclusion 4 - JL Mod - D28] (puzzle: Brourd's mod of Exclusion 4)
apparent KD of MS2 coat protein [1]: 31.6 nM

UCUGGUCGAGGAUAUGCAAUCGUGCUUCGGCACGUAAGGUCACAUGAGGAUCACCCAUGUAGAAGGCGACCAGA [E2/4-A3] (Eterna round: R97, puzzle: Exclusion 2)
apparent KD of MS2 coat protein (input ligand: FMN 200 uM): 34.4 nM
apparent KD of MS2 coat protein (input ligand: none): 17.3 nM

AAAUAAAGCCUAGGAUAUCCGGACGAUAACCCAGGAGAAGGAGGAUGUCGAAGAAGACAUGAGGAUCACCCAUGUGCGUCCUCU [Ancegege] (Eterna round: R96, puzzle: Exclusion NG 1)
apparent KD of MS2 coat protein (input ligand: FMN 200 uM): 10.3 nM
apparent KD of MS2 coat protein [2]: 10.6 nM
apparent KD of MS2 coat protein (input ligand: none): 15.4 nM

GGAUAAAAGGCAGGAUAUACGUAUCACUAACGAGUAGAAGGGCCACAUGAGGAUCACCCAUGUGAGUUCUCAAUAAGAAACACG [Prohibition 63 - Jieux - Exclusion NG 1] (Eterna round: R96, puzzle: Exclusion NG 1)
apparent KD of MS2 coat protein (input ligand: FMN 200 uM): 15.3 nM
apparent KD of MS2 coat protein [2]: 10.7 nM
apparent KD of MS2 coat protein (input ligand: none): 14.2 nM

UUCUUUACACGAGGAUAUCAUACAUGAGGAUCACCCAUGUUGCUUUGUCUGUUUUUAUGUAUUAUUGAGAAGGCGUUUUUCUUU [JR_ExcNG2_Sub076] (Eterna round: R96, puzzle: Exclusion NG 2)
apparent KD of MS2 coat protein (input ligand: FMN 200 uM): 21.9 nM
apparent KD of MS2 coat protein [2]: 19.7 nM
apparent KD of MS2 coat protein (input ligand: none): 23.7 nM

UAGUUAUUCACAGGAUAUCGCCUCUUAUUACAUGAGGAUCACCCAUGUUUACUUAGUUACAUGUUCGAGAAGGGUGUAGCCGUU [JR_ExcNG2_Sub044] (Eterna round: R96, puzzle: Exclusion NG 2)
apparent KD of MS2 coat protein [2]: 301 nM

GAUCAUGCAGGAUAUACAUAAACCAUGAAAACAUGGCUCAAACAUGAGGAUCACCCAUGUAGAAGGGCAUGAUC [Omei Ex2 A19] (Eterna round: R97, puzzle: Exclusion 2)
apparent KD of MS2 coat protein (input ligand: FMN 200 uM): 69.1 nM
apparent KD of MS2 coat protein (input ligand: none): 31.5 nM

UUUUUCGGACAAGCUACGUACAUGAGGAUCACCCAUGUCGGUAGAUUUGAGUAGGUUUGGAUGGAAGCUCGUCUUAU [JR_SV3TOV1_Sub084] (puzzle: Sensor v3, turn-off variant 1)
apparent KD of MS2 coat protein [3]: 40.9 nM
apparent KD of MS2 coat protein [1]: 53.5 nM
apparent KD of MS2 coat protein [4]: 53.2 nM

CCGAAGGCAGGAUAUACAGGACAGACCCAUCAGAGCAGACUACAUGAGGAUCACCCAUGUAGAAGGGCCUUCAA [Eternabot (Original) Solution 26] (Eterna round: R97, puzzle: Exclusion 2)
apparent KD of MS2 coat protein (input ligand: FMN 200 uM): 154 nM
apparent KD of MS2 coat protein (input ligand: none): 18.7 nM

UGAGCUACAGGAUAUAUAUGGCGACCGUGAGGUCGAAGGUUACAUGAGGAUCACCCAUGUAGAAGGGUAGUUCU [Mat - Exclusion 2 - JL Mod - D17] (Eterna round: R97, puzzle: Exclusion 2)
apparent KD of MS2 coat protein (input ligand: FMN 200 uM): 225 nM
apparent KD of MS2 coat protein (input ligand: none): 86.2 nM

UCCGAACAUGAGGAUCACCCAUGUCAGGAUAUAUUAAAGAAAGCCCGCGAAUGUGGGUAUAGAAGGGACAUGAA [Zaatinxe] (Eterna round: R97, puzzle: Exclusion 1)
apparent KD of MS2 coat protein (input ligand: FMN 200 uM): 15.8 nM
apparent KD of MS2 coat protein (input ligand: none): 15.6 nM

AGCUGUGGCCGAGGAUAUCUAUCUCAAAUAACCGAAAUAUAAUCGGACAUGAGGAUCACCCAUGUAGAGAAGGCGGUCUCAGCA [Eli eng2 - 089] (Eterna round: R96, puzzle: Exclusion NG 2)
apparent KD of MS2 coat protein [2]: 11.4 nM

UCGGCGCGAGGAUAUACGUUUGCGCUUUUUCGUUUUUGCGUACAUGAGGAUCACCCAUGUAGAAGGCGCGCCGC [Apr-15 SS2-17] (puzzle: Exclusion 2)
apparent KD of MS2 coat protein [1]: 14 nM

GUAUGUAACUAGGAUAUCAGCAUACUUCAAUGUUGAGAAGGAGUUACAUGAGGAUCACCCAUGUAUCCAACAUG [Exclusion 6 - 3:b] (puzzle: Exclusion 6)
apparent KD of MS2 coat protein [3]: 43.4 nM
apparent KD of MS2 coat protein [1]: 52.5 nM
apparent KD of MS2 coat protein [4]: 69.1 nM

CUCGUAUUAUACAUGAGGAUCACCCAUGUGGUCACCACUCACGAGGAUAUCCCGGGAAACCGAACGGAGAAGGUGUAGAGUCAU [Eternabot solution 44] (Eterna round: R96, puzzle: Exclusion NG 3)
apparent KD of MS2 coat protein (input ligand: FMN 200 uM): 164 nM
apparent KD of MS2 coat protein [2]: 163 nM
apparent KD of MS2 coat protein (input ligand: none): 196 nM

AGCUGUGGCCGAGGAUAUCACGACCGAUGGAAAACCAUCGGAACUCCACAUGAGGAUCACCCAUGUGAGAAGGCGGUCUCAGCA [Eli eng2 - 028] (Eterna round: R96, puzzle: Exclusion NG 2)
apparent KD of MS2 coat protein (input ligand: FMN 200 uM): 27.3 nM
apparent KD of MS2 coat protein [2]: 10.2 nM
apparent KD of MS2 coat protein (input ligand: none): 13.4 nM

GAUAGAGAGCAGGAUAUCUUAGAAAUGUAUUAUAGAGAAGGGCUCACAUGAGGAUCACCCAUGUGGUCCUAGAU [JL Dibiri mod 15] (Eterna round: R96, puzzle: Exclusion 6)
apparent KD of MS2 coat protein (input ligand: FMN 200 uM): 94.3 nM
apparent KD of MS2 coat protein [2]: 14.4 nM
apparent KD of MS2 coat protein (input ligand: none): 19.6 nM

AGUACUAUCACGAAAGUGAUAGUACAAUGAGCUUUUGAAACAUGAGGAUCACCCAUGUCCUCGUAAGCUCGUCUUAA [Mat - Sensor v2 - var 2 - Mod - D179] (Eterna round: R96, puzzle: Sensor v2, turn-off variant 2)
apparent KD of MS2 coat protein (input ligand: FMN 200 uM): 25.7 nM
apparent KD of MS2 coat protein [2]: 438 nM
apparent KD of MS2 coat protein (input ligand: none): 28.6 nM

CCUCGACGGUAGGAUAUCGUCAAACUAUUGUGAUGAGAAGGACUGACAUGAGGAUCACCCAUGUUAACGUGAUA [Exclusion 6 - 7:b] (puzzle: Exclusion 6)
apparent KD of MS2 coat protein [1]: 17.1 nM

AGAAAUUCAAGAGGAUAUCACAUGAGGAUCACCCAUGUAUAGCGCGCUACGCUAGUCCUCGUAUUUGAGAAGGUUUGAUAAAAG [Mat - Exclusion NG 2 - Mod of JL - D77] (Eterna round: R96, puzzle: Exclusion NG 2)
apparent KD of MS2 coat protein (input ligand: FMN 200 uM): 14.3 nM
apparent KD of MS2 coat protein [2]: 14.3 nM
apparent KD of MS2 coat protein (input ligand: none): 15.7 nM

CCAUGUUAGCAGGAUAUGCAAUAAAUCUUUUAUGCAGAAGGGCUUACAUGAGGAUCACCCAUGUAUUAAGUCAA [JR_E6_Sub078] (puzzle: Exclusion 6)
apparent KD of MS2 coat protein [3]: 118 nM
apparent KD of MS2 coat protein [1]: 36 nM
apparent KD of MS2 coat protein [4]: 49.9 nM

AGCUGUGGCCGAGGAUAUACAAUAACGAUGAGUGGAUUACACUCUUCGACAUGAGGAUCACCCAUGUAGAAGGCGGUCUCAGCA [Eli eng2 - 001] (Eterna round: R96, puzzle: Exclusion NG 2)
apparent KD of MS2 coat protein (input ligand: FMN 200 uM): 41.3 nM
apparent KD of MS2 coat protein [2]: 14.6 nM
apparent KD of MS2 coat protein (input ligand: none): 18 nM

GGUUGGCGAGGAUAUACAUGAGGAUCACCCAUGUGAGAAAUAAAAGUGAGGAAGAAAAGUAGAAGGCGCUGACG [Mat - Exclusion 3 - Mod of Salish D3] (puzzle: Exclusion 3)
apparent KD of MS2 coat protein [3]: 188 nM
apparent KD of MS2 coat protein [1]: 50.4 nM
apparent KD of MS2 coat protein [4]: 83.9 nM

GUCGAGUGAGGAUAUGGUGAGUAGUGCCUGAGCGCUGCUCACCAGAAGGCACAUGAGGAUCACCCAUGUAUAGC [JL-ex4-2.05 denovo] (puzzle: Exclusion 4)
apparent KD of MS2 coat protein [1]: 15.5 nM

UUUAAUCGUGACAUGGGUGACAUGAGGAUCACCCAUGUCACAAGCUUUUUGCUCGUCUUAUAAUUAACCCAUGUCAC [LRO Sensor-off var1-11 mod of Stov1-13-A1 by Brourd] (Eterna round: R97, puzzle: Sensor, turn-off variant 1)
apparent KD of MS2 coat protein (input ligand: FMN 200 uM): 15.1 nM
apparent KD of MS2 coat protein (input ligand: none): 15.6 nM

GGUUGGCGAGGAUAUACAUGAGGAUCACCCAUGUGAGAGAAAAAAGUGAGGAAGAAACGUAGAAGGCGCUGACG [salish99_ex3_r3_037] (puzzle: Exclusion 3)
apparent KD of MS2 coat protein [3]: 42.6 nM
apparent KD of MS2 coat protein [1]: 34.2 nM
apparent KD of MS2 coat protein [4]: 45.2 nM

GCAGUGCGAGGAUAUACAUGAGGAUCACCCAUGUGAGAAUAAUAAGUGAGGAAGAAAAGUAGAAGGCGCGUUGG [Mat - Exclusion 3 - Mod of Salish D67] (puzzle: Exclusion 3)
apparent KD of MS2 coat protein [3]: 103 nM
apparent KD of MS2 coat protein [1]: 41.1 nM
apparent KD of MS2 coat protein [4]: 46.8 nM

CCGGAACAUGAGGAUCACCCAUGUCAGGAUAUCUCAAAAUCGUCGAUAGACGAUAACAAGAGAAGGGACACCGG [Mat - Exclusion 1 - Eli Mod - D29] (Eterna round: R97, puzzle: Exclusion 1)
apparent KD of MS2 coat protein (input ligand: FMN 200 uM): 23.4 nM
apparent KD of MS2 coat protein (input ligand: none): 20.8 nM

GUUGUUCGAGGAUAUACAUGAGGAUCACCCAUGUGUGUUGUGGGCGACGUUCGUUUAUGUAGAAGGCGGGCGGC [-27.2, -23.9 kcal, 19% A] (Eterna round: R97, puzzle: Exclusion 3)
apparent KD of MS2 coat protein (input ligand: FMN 200 uM): 78.2 nM
apparent KD of MS2 coat protein (input ligand: none): 50.1 nM

CGUGUACGAGGAUAUAGAUUAGAUGACAUGAGGAUCACCCAUGUGAUCAAUCUAUUUAGUUUAGAAGGUGUACAUG [JR_Ex5_Sub051] (Eterna round: R97, puzzle: Exclusion 5)
apparent KD of MS2 coat protein (input ligand: FMN 200 uM): 16.1 nM
apparent KD of MS2 coat protein (input ligand: none): 12.5 nM

ACAGUAUGAUCCGCUCAACAUGAGGAUCACCCAUGUGAUGACUAGGAUAUUAGUAGCCCGCGCAUUAAGAAGGAGUUACGAUUG [Eternabot solution 33] (Eterna round: R96, puzzle: Exclusion NG 3)
apparent KD of MS2 coat protein (input ligand: FMN 200 uM): 20 nM
apparent KD of MS2 coat protein [2]: 13.9 nM
apparent KD of MS2 coat protein (input ligand: none): 23.6 nM

AGGUAGUCAGGAUAUUAAGAGUAGCGGGAUAACGCUACGAGUGAGAAGGGACAUGAGGAUCACCCAUGUUUUUU [JR_Ex4_Sub072] (Eterna round: R97, puzzle: Exclusion 4)
apparent KD of MS2 coat protein (input ligand: FMN 200 uM): 22 nM
apparent KD of MS2 coat protein (input ligand: none): 22.5 nM

AAGAAUUUAUAGGAUAUCGAAAGUAUAAUUUAACGAGAAGGAUGAACAUGAGGAUCACCCAUGUGGUAUCAUGG [JL-ex6-3.09] (puzzle: Exclusion 6)
apparent KD of MS2 coat protein [3]: 145 nM
apparent KD of MS2 coat protein [1]: 232 nM
apparent KD of MS2 coat protein [4]: 304 nM
